Data published in patent publication US20240139251A1 (CYTOARM, published 2024).

What was measured:
[1] = target: T1, prostate specific membrane antigen (PSMA) on LNCaP cells (human, UniProt Q04609 1-750); test: cell-based or functional assay
[2] = target: T1, prostate specific membrane antigen …; test: cell-based or functional assay; remark: listed apart in the source

B1: anti-PSMA Fab/anti-CD3 scFv BsAb (bispecific antibody, not shown: small tags and cut ends)
light: DIVMTQSPSSLSASVGDRVTITCKASQDVGTAVDWYQQKPGKAPKLLIYWASTRHTGVPDRFTGSGSGTDFTLTISSLQPEDFADYFCQQYNSYPLTFGGGTKLEIKRTVAAPSVFIFPPSDEQLKSGTASVVCLLNNFYPREAKVQWKVDNALQSGNSQESVTEQDSKDSTYSLSSTLTLSKADYEKHKLYACEVTHQGLSSPVTKSFNRGEC
heavy (part 1 of 2): EVQLVQSGAEVKKPGASVKISCKTSGYTFTEYTIHWVKQASGKGLEWIGNINPNNGGTTYNQKFEDRATLTVDKSTSTAYMELSSLRSEDTAVYYCAAGWNFDYWGQGTTVTVSSASTKGPSVFPLAPSSKSTSGGTAALGCLVKDYFPEPVTVSWNSGALTSGVHTFPAVLQSSGLYSLSSVVTVPSSSLGTQTYICNVNHKPSNTKVDKRVEPKSCDK
heavy (part 2 of 2): not shown
**Q.** How did the “Cytotoxic effect of BsAb T cells on LNCaP cells, Effect cell/Target cell 3:1” value (shortened to “Cytotoxic effect … Effect cell/Target cell 3:1”) [1] turn out when B1 was run?
**A.** Its value is 64.8%.

**Q.** What about the “Cytotoxic effect of BsAb T cells on LNCaP cells, Effect cell/Target cell 5:1” value (“Cytotoxic effect … Effect cell/Target cell 5:1” for short) [1] of the same binder?
**A.** Its value is 87%.

**Q.** And the “Cytotoxic effect of BsAb T cells on LNCaP cells, Effect cell/Target cell 10:1” value (“Cytotoxic effect … Effect cell/Target cell 10:1” below) [1]?
**A.** The value was 97.3%.

**Q.** What about the “Cell killing of LNCaP cells by T cells of Example 2 further modified with BsAb, E/T ratio 10:1” value [2] of the same binder?
**A.** The value was > 90%.

**Q.** What about the “Cell killing of LNCaP cells by murine OKT3 T cells modified with BsAb, E/T ratio 10:1” value [2] of the same binder?
**A.** Its value is ~100%.

B2: anti-CD3 Fab/anti-PSMA scFv BsAb (bispecific antibody, not shown: small tags and cut ends)
light: not shown
heavy (part 1 of 2): not shown
heavy (part 2 of 2): GGGSGGGEVQLVQSGAEVKKPGASVKISCKTSGYTFTEYTIHWVKQASGKGLEWIGNINPNNGGTTYNQKFEDRATLTVDKSTSTAYMELSSLRSEDTAVYYCAAGWNFDYWGQGTTVTVSSAGGGGSGGGGSGGGGSDIVMTQSPSSLSASVGDRVTITCKASQDVGTAVDWYQQKPGKAPKLLIYWASTRHTGVPDRFTGSGSGTDFTLTISSLQPEDFADYFCQQYNSYPLTFGGGTKLEIKRHHHHHH
**Q.** How did the “Cytotoxic effect … Effect cell/Target cell 3:1” value [1] turn out when B2 was run?
**A.** Its value is 30.3%.

**Q.** And the “Cytotoxic effect … Effect cell/Target cell 5:1” value [1]?
**A.** The value was 62.6%.

**Q.** And the “Cytotoxic effect … Effect cell/Target cell 10:1” value [1]?
**A.** Its value is 82.2%.

**Q.** What about the “Cell killing of LNCaP cells by T cells of Example 2 further modified with BsAb, E/T ratio 10:1” value [2] of the same binder?
**A.** The value was > 90%.

**Q.** And the “Cytotoxicity on LNCaP cells of T cells differentiated by BsAb, E/T ratio 5:1” value [2]?
**A.** The value was ~51.3%.

**Q.** What about the “Cytotoxicity on LNCaP cells of T cells differentiated by BsAb, E/T ratio 10:1” value [2] of the same binder?
**A.** The value was ~61%.

**Q.** What about the “Cytotoxicity on LNCaP cells of T cells differentiated by and further modified with BsAb, E/T ratio 5:1” value [2] of the same binder?
**A.** Its value is ~78.2%.

**Q.** And the “Cytotoxicity on LNCaP cells of T cells differentiated by and further modified with BsAb, E/T ratio 10:1” value [2]?
**A.** The value was ~81.8%.

B3: anti-PSMA scFv/anti-CD3 scFv BsAb (bispecific antibody, not shown: small tags and cut ends)
chain (part 1 of 2): DIVMTQSPSSLSASVGDRVTITCKASQDVGTAVDWYQQKPGKAPKLLIYWASTRHTGVPDRFTGSGSGTDFTLTISSLQPEDFADYFCQQYNSYPLTFGGGTKLEIKRGGGGSGGGGSGGGGSEVQLVQSGAEVKKPGASVKISCKTSGYTFTEYTIHWVKQASGKGLEWIGNINPNNGGTTYNQKFEDRATLTVDKSTSTAYMELSSLRSEDTAVYYCAAGWNFDYWGQGTTVTVSSA
chain (part 2 of 2): not shown
**Q.** With B3 as the binder, how does the “Cytotoxic effect … Effect cell/Target cell 3:1” value [1] read?
**A.** The value was 53.8%.

**Q.** What about the “Cytotoxic effect … Effect cell/Target cell 5:1” value [1] of the same binder?
**A.** Its value is 83.4%.

**Q.** And the “Cytotoxic effect … Effect cell/Target cell 10:1” value [1]?
**A.** Its value is 97.6%.

**Q.** What about the “Cell killing of LNCaP cells by T cells of Example 2 further modified with BsAb, E/T ratio 10:1” value [2] of the same binder?
**A.** The value was > 90%.

B4: anti-CD3 knob/anti-PSMA hole BsAb (bispecific antibody)
light 1: not shown
heavy 1: not shown
light 2: RIVMTQSPSSLSASVGDRVTITCKASQDVGTAVDWYQDKPGKAPKLLIYWASTRHTGVPDRFTGSGSGTDFTLTISSLQPEDFADYFCQQYNSYPLTFGGGTKLEIKRTVAAPSVFIFPPSDEQLKSGTASVVCYLNNFYPREAKVQWKVDNALQSGNSQESVTEQDSKDSTYSLWSTLTLSKADYEKHKLYACEVTHQGLSSPVTKSFNRGECGGGSYPYDVPDYA
heavy 2: not shown
**Q.** Which “Cytotoxic effect … Effect cell/Target cell 3:1” value [1] does the source give for B4 here?
**A.** The value was 43.1%.

**Q.** And the “Cytotoxic effect … Effect cell/Target cell 5:1” value [1]?
**A.** Its value is 58.6%.

**Q.** And the “Cytotoxic effect … Effect cell/Target cell 10:1” value [1]?
**A.** The value was 70.4%.

**Q.** What about the “Cell killing of LNCaP cells by T cells of Example 2 further modified with BsAb, E/T ratio 10:1” value [2] of the same binder?
**A.** Its value is > 90%.
